The values that follow come from US8173771B2, “Humanin receptor or humanin-like polypeptide receptor” (Keio Univeristy, priority 2005, dated 2012).

In assay [1] the target is T1, rat IL-6R (rat, UniProt P22273 20-462).
T1 construct: Overexpressed in F11 cells; stood in the cell lysate in the pull-down assay; also called IL-6 receptor; rat IL-6R (V6 tagged); not shown: printed as 'V6 tagged'
T1 sequence (looked up): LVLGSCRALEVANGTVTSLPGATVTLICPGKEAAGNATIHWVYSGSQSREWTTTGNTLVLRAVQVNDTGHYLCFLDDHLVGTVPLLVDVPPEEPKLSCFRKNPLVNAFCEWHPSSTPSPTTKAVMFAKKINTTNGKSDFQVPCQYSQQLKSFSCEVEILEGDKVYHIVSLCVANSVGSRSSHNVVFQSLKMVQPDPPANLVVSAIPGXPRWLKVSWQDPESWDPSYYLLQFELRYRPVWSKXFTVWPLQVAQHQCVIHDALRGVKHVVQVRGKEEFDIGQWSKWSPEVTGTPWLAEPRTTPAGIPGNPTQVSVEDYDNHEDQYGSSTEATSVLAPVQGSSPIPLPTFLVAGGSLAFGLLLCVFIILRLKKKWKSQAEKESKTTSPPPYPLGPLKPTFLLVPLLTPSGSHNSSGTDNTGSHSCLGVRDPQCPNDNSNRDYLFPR
In words: pull-down with HN-Sepharose 4B from lysates of transfected F11 cells, immunoblot. The protocol:
(§1) WSX-1, CNTF-R, and IL-6 were over-expressed in F11 cells and the pull down assay was made using the above 4B bead.
(§2) F11 cells (7×10^4/well in 6-well plates) were transfected with the plasmids encoding mycHis-WSX-1, V5-CNTF-R or rat IL-6R (V6 tagged). […] The beads were then reacted with a blocking buffer (0.2M glycine, pH 8.0) for 2 hrs at a room temperature, washed with the coupling buffer and stored at 4° C. for use in pull-down assay. For each pull-down assay, 20 μl of 1:1 slurry of Sepharose was used for 100 μl of the cell lysate.

Assay [2] has as its target T2, Humanin receptor (HNR) overexpressed in F11 cells: human CNTF-R/WSX-1/gp130 (human, UniProt P26992 23-342; Q6UWB1 33-636; P40189 23-918).
T2 construct: whole, on cells; The three human subunits co-transfected into F11 cells, which also carry the endogenous receptor; also called both the CNTF receptor and WSX-1; not shown: C-terminal V5 tag; C-terminal myc-His tag
In words: cold competitor in binding assay (2), F11 cells transfected with human CNTF-R/WSX-1/gp130. The protocol: A) F11 cells were seeded on 96-well plates coated with poly-L-lysine (7 ×10^3 cells/well). […] On the other hand, F11 cells were transfected with 0.5 μg of pcDNA3.1/GS-human CNTF-R, pEF1/MycHis-human WSX-1, and 1.0 μg of pCAG-human gp130. At 24 hrs after the transfection, the cells were re-seeded on 96-well plates coated with poly-L-lysine (7 ×10^3 cells/well).
(§3) F11 cells (7×10^4/well in 6-well plates) were replated into 96-well plates (7×10^3 cells/well) at 24 hrs after transfection with indicated amounts of the plasmids encoding mycHis-WSX or V5-CNTF-R, and with PCAG-human gp130 if required. […] After 6 hrs incubation, they were fixed with 4% paraformaldehyde in PBS for 30 min. After washing with PBS, cells were stained with FITC-conjugated avidin (Molecularprobe, Eugene, Oreg., USA). Immunofluorescence intensity was measured (excitation=485 nm, emission=535 nm) with a spectrofluorometer (Wallac1420 ARVOsx Multi Label Counter). Immunohistochemical analysis was done with a laser-scanning, confocal microscope LSM (Carl Zeiss, Germany).

Assay [3] deals with T1, rat IL-6R. In words: pull-down with HNA-Sepharose 4B from lysates of transfected F11 cells, immunoblot. On the procedure:
as §1, §2

Assay [4] addresses T3, C-terminally myc-tagged human WSX-1 (mycHis-WSX-1) (human, UniProt Q6UWB1 33-636).
T3 construct: whole, on cells; in the pull-down and co-immunoprecipitation it stood in cell lysates; also called myc-WSX-1; IL-27 receptor; not shown: C-terminal myc-His tag of the pEF-mycHis vector
T3 sequence (looked up): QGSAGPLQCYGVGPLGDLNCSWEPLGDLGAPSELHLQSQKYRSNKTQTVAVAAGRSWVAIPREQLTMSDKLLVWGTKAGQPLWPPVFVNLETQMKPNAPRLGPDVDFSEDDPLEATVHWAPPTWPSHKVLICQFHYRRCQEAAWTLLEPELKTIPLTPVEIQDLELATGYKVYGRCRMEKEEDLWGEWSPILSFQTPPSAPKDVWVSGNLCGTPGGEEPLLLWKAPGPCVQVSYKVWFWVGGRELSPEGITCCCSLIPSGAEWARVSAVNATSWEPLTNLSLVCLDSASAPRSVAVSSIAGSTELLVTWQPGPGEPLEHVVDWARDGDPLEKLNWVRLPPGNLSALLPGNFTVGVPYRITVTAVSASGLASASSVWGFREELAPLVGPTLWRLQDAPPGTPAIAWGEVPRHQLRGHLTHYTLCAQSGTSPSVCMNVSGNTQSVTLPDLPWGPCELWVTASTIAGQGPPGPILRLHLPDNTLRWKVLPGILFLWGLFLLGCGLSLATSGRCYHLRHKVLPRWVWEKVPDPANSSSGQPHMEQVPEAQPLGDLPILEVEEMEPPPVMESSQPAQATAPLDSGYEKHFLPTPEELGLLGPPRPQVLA
The assay is described as above. The protocol:
as §1, §2

The target of assay [5] is T4, C-terminally V5-tagged human CNTF-R (V5-CNTF-R) (human, UniProt P26992 23-342).
T4 construct: whole, on cells; in the pull-down and co-immunoprecipitation it stood in cell lysates; also called human CNTF receptor; CNTF receptor alpha chain; not shown: C-terminal V5 tag
T4 sequence (looked up): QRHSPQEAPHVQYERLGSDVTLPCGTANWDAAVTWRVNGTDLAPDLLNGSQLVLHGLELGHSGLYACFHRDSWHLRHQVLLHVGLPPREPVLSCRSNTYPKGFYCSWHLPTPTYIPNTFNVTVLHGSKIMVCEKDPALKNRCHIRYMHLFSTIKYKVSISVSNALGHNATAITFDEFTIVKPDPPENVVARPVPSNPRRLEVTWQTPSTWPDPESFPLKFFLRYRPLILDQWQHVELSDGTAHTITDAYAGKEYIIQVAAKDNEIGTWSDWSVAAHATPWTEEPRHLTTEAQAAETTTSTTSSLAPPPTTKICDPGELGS
Described as above. On the procedure:
as §1, §2

A further assay has as its target T5, myc-tagged mouse CREME9 (mouse, UniProt Q9Z2L7 1-442).
T5 construct: whole, on cells; Methods say mouse CREME9; Co-expressed with human gp130 in F11 cells; also called CRL4; pEF-mycHis CREME9; not shown: myc-His tag
T5 sequence (looked up): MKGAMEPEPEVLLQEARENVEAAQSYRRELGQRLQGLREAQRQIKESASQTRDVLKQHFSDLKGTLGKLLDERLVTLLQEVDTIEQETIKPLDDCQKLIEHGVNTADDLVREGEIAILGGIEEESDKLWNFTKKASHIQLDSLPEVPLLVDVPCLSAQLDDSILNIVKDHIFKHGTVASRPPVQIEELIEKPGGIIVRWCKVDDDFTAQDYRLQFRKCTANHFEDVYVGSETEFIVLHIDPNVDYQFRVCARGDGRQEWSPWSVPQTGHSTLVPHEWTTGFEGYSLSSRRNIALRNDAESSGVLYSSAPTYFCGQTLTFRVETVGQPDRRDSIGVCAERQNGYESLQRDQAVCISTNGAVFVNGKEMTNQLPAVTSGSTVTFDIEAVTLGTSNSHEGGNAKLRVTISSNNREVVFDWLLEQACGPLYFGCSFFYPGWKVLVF
In words: immunofluorescence-based HN binding assay (1) on F11 cells overexpressing CREME9 and human gp130. On the procedure:
B) F11 cells were transfected with 0.5 µg of pEF-myc His human CREME9 or pEF-mycHis human WSX-1 in association with 0.5 µg of pCAG-human gp130. […] Fluorescence signals were detected with a laser-scanning, confocal microscope LSM (Carl Zeiss, Germany) (right panels).
as §3

Ends that are not written are not given here.

T2 sequence (P40189 23-918, one chain of several): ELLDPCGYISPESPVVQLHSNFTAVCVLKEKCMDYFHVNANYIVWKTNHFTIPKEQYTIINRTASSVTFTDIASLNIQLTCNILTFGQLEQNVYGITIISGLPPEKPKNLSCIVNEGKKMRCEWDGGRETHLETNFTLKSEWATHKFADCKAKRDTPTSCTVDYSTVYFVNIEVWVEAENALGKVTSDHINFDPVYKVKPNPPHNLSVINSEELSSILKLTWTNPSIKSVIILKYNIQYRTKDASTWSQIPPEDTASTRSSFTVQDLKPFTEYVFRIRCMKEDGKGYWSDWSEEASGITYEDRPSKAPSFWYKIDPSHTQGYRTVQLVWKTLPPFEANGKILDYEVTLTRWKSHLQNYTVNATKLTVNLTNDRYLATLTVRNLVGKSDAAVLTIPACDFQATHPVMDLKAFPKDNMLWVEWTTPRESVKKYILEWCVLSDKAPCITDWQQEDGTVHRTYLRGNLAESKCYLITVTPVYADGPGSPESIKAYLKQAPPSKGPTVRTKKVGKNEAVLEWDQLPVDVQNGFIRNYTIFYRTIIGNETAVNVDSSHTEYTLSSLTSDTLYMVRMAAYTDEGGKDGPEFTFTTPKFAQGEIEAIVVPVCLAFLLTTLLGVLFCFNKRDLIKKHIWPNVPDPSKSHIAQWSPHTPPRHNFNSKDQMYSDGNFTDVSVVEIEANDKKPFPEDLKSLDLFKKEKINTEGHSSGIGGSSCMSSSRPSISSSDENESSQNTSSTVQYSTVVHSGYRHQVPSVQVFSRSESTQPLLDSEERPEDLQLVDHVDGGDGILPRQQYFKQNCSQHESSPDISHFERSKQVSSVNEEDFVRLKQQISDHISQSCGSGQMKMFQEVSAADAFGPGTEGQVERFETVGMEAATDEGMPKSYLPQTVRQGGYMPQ

B1: Humanin (HN) (peptide)
peptide: MAPRGFSCLLLLTSEIDLPVKRRA
notes: Synthetic 24-residue peptide; elsewhere it was used free and unlabeled; also called synthetic Humanin
Turning to B1, the binding result in the assay with rat IL-6R [1] is “no binding”; in assay [2] it was “binds”.

B2: C8A-Humanin (HNA) (peptide)
peptide: MAPRGFSALLLLTSEIDLPVKRRA
notes: Synthetic peptide, HN mutant with null activity used as negative control; also called C8A-HN
As for B2, the binding result (with rat IL-6R [3]; in assay [4]; in assay [5]) was “no binding” in each case.

B3: biotin-labeled HNG-FLAG (peptide)
peptide: MAPRGFSCLLLLTGEIDLPVKRRA
modifications: also: biotin label, position not given here, FLAG tag, sequence and position not given here
notes: the identity is therefore uncertain; not shown: FLAG tag
Take B3: the binding result in the assay with myc-tagged mouse CREME9 is reported as “no binding (tested: 100 nM)”.
